In patent CN110357960A (GUANGZHOU AISIMAI BIOMEDICAL TECH CO LTD, dated 2019):

The binders below were run against 肿瘤细胞SKBR3表面的Her2抗原 (UniProt P04626 23-1255, limits assumed) (assay: cell-based or functional assay).

对SKBR3细胞的杀伤 EC50浓度 (CTL, LDH release, PBMC effector cells)	Binder
0.045 ng/mL	抗Her2×抗CD3双特异性抗体MutC (bispecific antibody, human IgG1, kappa) heavy 1: EVQLVESGGGLVQPGGSLRLSCAASGFTFNTYAMNWVRQAPGKGLEWVARIRSKYNNYATYYADSVKDRFTISRDDSKNSLYLQMNSLKTEDTAVYYCARHGNFGNSYVSWFAYWGQGTLVTVSSISSASTKGPSVFPLAPSSKSTSGGTAALGCLVKDYFPEPVTVSWNSGALTSGVHTFPAVLQSSGLYSLSSVVTVPSSSLGTQTYICNVNHKPSNTKVDKKVEPKSCDKTHTCPPCPAPELLGGPSVFLFPPKPKDTLMISRTPEVTCVVVDVSHEDPEVKFNWYVDGVEVHNAKTKPREEQYNSTYRVVSVLTVLHQDWLNGKEYKCKVSNKALPAPIEKTISKAKGQPREPQVYTLPPSREEMTKNQVSLTCLVKGFYPSDIAVEWESNGQPENNYKTTKKKLDSDGSFFLYSKLTVDKSRWQQGNVFSCSVMHEALHNHYTQKSLSLSPGK light 1: QTVVTQEPSLTVSPGGTVTLTCGSSTGAVTTSNYANWVQEKPGQAPRGLIGGTNKRAPWTPARFSGSLLGGKAALTITGAQAEDEADYYCALWYSNLWVFGGGTKLTVLGKLVTMEIKRTVAAPSVFIFPPSDEQLKSGTASVVCLLNNFYPREAKVQWKVDNALQSGNSQESVTEQDSKDSTYSLSSTLTLSKADYEKHKVYTCEVTHQGLSSPVTKSFNRGEC heavy 2: not shown light 2: DIQMTQSPSSLSASVGDRVTITCRASQDVNTAVAWYQQKPGKAPKLLIYSASFLYSGVPSRFSGSRSGTDFTLTISSLQPEDFATYYCQQHYTTPPTFGQGTKLVTMEIKRTVAAPSVFICPPSDEQLKSGTASVVCLLNNFYPREAKVQWKVDNALQSGNSQESVTEQDSKDSTYSLSSTLTLSKADYEKHKVYTCEVTHQGLSSPVTKSFNRGES
0.055 ng/mL	抗Her2×抗CD3双特异性抗体MutC+ER (bispecific antibody) chain 1: EVQLVESGGGLVQPGGSLRLSCAASGFTFNTYAMNWVRQAPGKGLEWVARIRSKYNNYATYYADSVKDRFTISRDDSKNSLYLQMNSLKTEDTAVYYCARHGNFGNSYVSWFAYWGQGTLVTVSSISSASTKGPSVFPLAPSSKSTSGGTAALGCLVKDYFPEPVTVSWNSGALTSGVHTFPAVLQSSGLYSLSSVVTVPSSSLGTQTYICNVNHKPSNTKVDKKVEPESCDKTHTCPPCPAPELLGGPSVFLFPPKPKDTLMISRTPEVTCVVVDVSHEDPEVKFNWYVDGVEVHNAKTKPREEQYNSTYRVVSVLTVLHQDWLNGKEYKCKVSNKALPAPIEKTISKAKGQPREPQVYTLPPSREEMTKNQVSLTCLVKGFYPSDIAVEWESNGQPENNYKTTKKKLDSDGSFFLYSKLTVDKSRWQQGNVFSCSVMHEALHNHYTQKSLSLSPGK chain 2: QTVVTQEPSLTVSPGGTVTLTCGSSTGAVTTSNYANWVQEKPGQAPRGLIGGTNKRAPWTPARFSGSLLGGKAALTITGAQAEDEADYYCALWYSNLWVFGGGTKLTVLGKLVTMEIKRTVAAPSVFIFPPSDEQLKSGTASVVCLLNNFYPREAKVQWKVDNALQSGNSQESVTEQDSKDSTYSLSSTLTLSKADYEKHKVYTCEVTHQGLSSPVTKSFNRGRC chain 3: not shown chain 4: DIQMTQSPSSLSASVGDRVTITCRASQDVNTAVAWYQQKPGKAPKLLIYSASFLYSGVPSRFSGSRSGTDFTLTISSLQPEDFATYYCQQHYTTPPTFGQGTKLVTMEIKRTVAAPSVFICPPSDEQLKSGTASVVCLLNNFYPREAKVQWKVDNALQSGNSQESVTEQDSKDSTYSLSSTLTLSKADYEKHKVYTCEVTHQGLSSPVTKSFNRGES
0.034 ng/mL	抗Her2×抗CD3双特异性抗体MutC-ER (bispecific antibody, human IgG1, kappa) heavy 1: EVQLVESGGGLVQPGGSLRLSCAASGFTFNTYAMNWVRQAPGKGLEWVARIRSKYNNYATYYADSVKDRFTISRDDSKNSLYLQMNSLKTEDTAVYYCARHGNFGNSYVSWFAYWGQGTLVTVSSISSASTKGPSVFPLAPSSKSTSGGTAALGCLVKDYFPEPVTVSWNSGALTSGVHTFPAVLQSSGLYSLSSVVTVPSSSLGTQTYICNVNHKPSNTKVDKKVEPKSCDKTHTCPPCPAPELLGGPSVFLFPPKPKDTLMISRTPEVTCVVVDVSHEDPEVKFNWYVDGVEVHNAKTKPREEQYNSTYRVVSVLTVLHQDWLNGKEYKCKVSNKALPAPIEKTISKAKGQPREPQVYTLPPSREEMTKNQVSLTCLVKGFYPSDIAVEWESNGQPENNYKTTKKKLDSDGSFFLYSKLTVDKSRWQQGNVFSCSVMHEALHNHYTQKSLSLSPGK light 1: QTVVTQEPSLTVSPGGTVTLTCGSSTGAVTTSNYANWVQEKPGQAPRGLIGGTNKRAPWTPARFSGSLLGGKAALTITGAQAEDEADYYCALWYSNLWVFGGGTKLTVLGKLVTMEIKRTVAAPSVFIFPPSDEQLKSGTASVVCLLNNFYPREAKVQWKVDNALQSGNSQESVTEQDSKDSTYSLSSTLTLSKADYEKHKVYTCEVTHQGLSSPVTKSFNRGEC heavy 2: not shown light 2: DIQMTQSPSSLSASVGDRVTITCRASQDVNTAVAWYQQKPGKAPKLLIYSASFLYSGVPSRFSGSRSGTDFTLTISSLQPEDFATYYCQQHYTTPPTFGQGTKLVTMEIKRTVAAPSVFICPPSDEQLKSGTASVVCLLNNFYPREAKVQWKVDNALQSGNSQESVTEQDSKDSTYSLSSTLTLSKADYEKHKVYTCEVTHQGLSSPVTKSFNRGRS
